Experiments:
[1] = target: Claudin18.2 protein (Genscript Biotech) (UniProt P56856); assay: ELISA, plate coated with Claudin18.2 antigen at 0.2 µg/mL, antibody at 1 µg/mL
[2] = target: Claudin18.2 protein (Genscript Biotech) (UniProt P56856); assay: ELISA, plate coated with Claudin18.2 antigen at 0.0125 µg/mL, antibody at 1 µg/mL
[3] = target: Claudin18.2 protein (Genscript Biotech) (UniProt P56856); assay: ELISA, plate coated with Claudin18.2 antigen at 0.05 µg/mL, antibody at 1 µg/mL
[4] = target: Claudin18.1 on cells (human) (UniProt P56856); assay: flow cytometry on 293T-Claudin18.1 cells, antibody at 0.75 µg/mL
[5] = target: Claudin18.2 on cells (human) (UniProt P56856); assay: flow cytometry on 293T-Claudin18.2 cells, antibody at 0.375 µg/mL
[6] = target: Claudin18.2 on cells (human) (UniProt P56856); assay: cell-based or functional assay
[7] = target: Claudin18.1 on cells (human) (UniProt P56856); assay: flow cytometry on 293T-Claudin18.1 cells, antibody at 1.5 µg/mL
[8] = target: Claudin18.2 on cells (human) (UniProt P56856); assay: flow cytometry on 293T-Claudin18.2 cells, antibody at 1.5 µg/mL
[9] = target: Claudin18.2 on cells (human) (UniProt P56856); assay: flow cytometry on NUGC4 cells, antibody at 0.75 µg/mL
[10] = target: Claudin18.2 on cells (human) (UniProt P56856); assay: flow cytometry on NUGC4 cells, antibody at 3 µg/mL
[11] = target: Claudin18.1 on cells (human) (UniProt P56856); assay: flow cytometry on 293T-Claudin18.1 cells, antibody at 3 µg/mL
[12] = target: Claudin18.2 on cells (human) (UniProt P56856); assay: flow cytometry on NUGC4 cells, antibody at 1.5 µg/mL
[13] = target: Claudin18.2 on cells (human) (UniProt P56856); assay: flow cytometry on 293T-Claudin18.2 cells, antibody at 0.75 µg/mL
[14] = target: Claudin18.2 on cells (human) (UniProt P56856); assay: flow cytometry on 293T-Claudin18.2 cells, antibody at 3 µg/mL
[15] = target: Claudin18.1 on cells (human) (UniProt P56856); assay: flow cytometry on 293T-Claudin18.1 cells, antibody at 0.375 µg/mL

Binder	OD450 [1]	OD450 [2]	OD450 [3]	mean fluorescence intensity [4]	mean fluorescence intensity [5]	ADCC inhibition rate, %, antibody 0.5 µg/mL, 293T-Claudin18.2 target cells, PBMC effectors, LDH [6] [%]	ADCC inhibition rate, %, antibody 5 µg/mL, 293T-Claudin18.2 target cells, PBMC effectors, LDH [6] [%]	ADCC inhibition rate, %, antibody 50 µg/mL, 293T-Claudin18.2 target cells, PBMC effectors, LDH [6] [%]	mean fluorescence intensity [7]	mean fluorescence intensity [8]	mean fluorescence intensity [9]	mean fluorescence intensity [10]	mean fluorescence intensity [11]	mean fluorescence intensity [12]	mean fluorescence intensity [13]	mean fluorescence intensity [14]	mean fluorescence intensity [15]
CLDQ1-CA841-IgG1 (antibody, V domains shown) VH: QVQLVQSGAEVKKPGSSVKVSCKASGGTFSSYAISWVRQAPGQGLEWMGRIIPILGIANYAQKFQGRVTVTADKSTSTAYMELSSLRSEDTAVYYCARERDNWDPYYYYYGMDVWGQGTTVTVSS VL: DIQMTQSPSTLSASVGDRVTITCRASQSINSWLAWYQQKPGKAPKLLIYKASSLESGVPSRFSGSGSGTEFTLTISSLQPDDFATYYCQQYNSFPLTFGGGTKVEIKR	2.38	0.165	0.484														
CLDMix-CA818-IgG1 (antibody, V domains shown) VH: GAATAVGRRTVEASETLSLTCAVYGGSFSGYYWSWIRQPPGKGLEWIGEINHSGSTNYNPSLKSRVTISVDTSKNQFSLKLSSVTAADTAVYYCARGPYDILTGYYPYWYFDLWGRGTLVTVSS VL: DIVMTQSPSTLSASVGDRVTITCRASQGIRNDLGWYQQKPGKAPKLLIYDASSLQSGVPSRFSGSGYGTDFTLTISSLQPEDFATYYCLQDYNYPWTFGQGTKLEIKR	3.19	0.492	1.28	15200	9360	15	25	45	17900	34200	15000	42600	34400	20400	17300	33300	7960

Source: patent US20220204609A1
